Laboratory results as given in article PMC10276003, “Regulation of microRNA expression by the adaptor protein GRB2” (Scientific Reports, 2023).
Values belong to the binder of their own block, whether it stands above or below them.

Legend:
Conditions in all cases: both partners purified
[1] = target: T1, AGO2 pre-incubated with GRB2 (GRB2-AGO2 complex) (human | , UniProt Q9UKV8 1-859; P62993 1-217, labelled with Atto 488 NHS ester); test: MST; 2.29 to 75,000 nM unlabelled DICER1^CT with 100 nM Atto 488-labelled AGO2 pre-incubated with 50 uM GRB2; 20 mM HEPES, 150 mM NaCl, 1 mM TCEP pH 7.5
T1 construct: Argonaute 2 (AGO2), human; as m20; as m12; The complex was not isolated: labelled AGO2 (100 nM) stood with an excess of GRB2; source: E. coli BL21(DE3), both purified; AGO2 incubated with 25 or 50 uM GRB2 before the MST

[2] = target: T1, AGO2 pre-incubated with GRB2 (GRB2-AGO2 …); test: MST; 2.29 to 75,000 nM unlabelled DICER1^CT with 100 nM Atto 488-labelled AGO2 pre-incubated with 25 uM GRB2; 20 mM HEPES, 150 mM NaCl, 1 mM TCEP pH 7.5
[3] = target: T2, AGO2 (purified as GST-AGO2, GST cleaved) (human, UniProt Q9UKV8 1-859, labelled with Atto 488 NHS ester); test: MST; 2.29 to 75,000 nM unlabelled DICER1^CT with 100 nM Atto 488-labelled AGO2, no GRB2; 20 mM HEPES, 150 mM NaCl, 1 mM TCEP pH 7.5
T2 construct: Argonaute 2 (AGO2), human; source: E. coli BL21(DE3), purified (RNase, glutathione superflow resin, Superdex 75; GST cleaved with thrombin)

His-tagged GRB2 [4] = target: T3, His-tagged GRB2 (UniProt P62993 1-217); test: ITC; 1.2 mM peptide titrated into 80 uM His-tagged GRB2; 25 C; 20 mM Tris-HCl pH 8, 150 mM NaCl, 1 mM beta-mercaptoethanol
T3 construct: For the MST with DICER1^CT and AGO2 the text writes only GRB2; also called His-GRB2

His-tagged GRB2 [5] = target: T3, His-tagged GRB2; test: ITC; 500 uM MBP-tagged AGO2 domain titrated into 20 uM His-tagged GRB2; 25 C; 20 mM Tris-HCl pH 8, 150 mM NaCl, 10% glycerol, 1 mM beta-mercaptoethanol; one-site model with n fixed at 1

T2 sequence (Q9UKV8 whole entry): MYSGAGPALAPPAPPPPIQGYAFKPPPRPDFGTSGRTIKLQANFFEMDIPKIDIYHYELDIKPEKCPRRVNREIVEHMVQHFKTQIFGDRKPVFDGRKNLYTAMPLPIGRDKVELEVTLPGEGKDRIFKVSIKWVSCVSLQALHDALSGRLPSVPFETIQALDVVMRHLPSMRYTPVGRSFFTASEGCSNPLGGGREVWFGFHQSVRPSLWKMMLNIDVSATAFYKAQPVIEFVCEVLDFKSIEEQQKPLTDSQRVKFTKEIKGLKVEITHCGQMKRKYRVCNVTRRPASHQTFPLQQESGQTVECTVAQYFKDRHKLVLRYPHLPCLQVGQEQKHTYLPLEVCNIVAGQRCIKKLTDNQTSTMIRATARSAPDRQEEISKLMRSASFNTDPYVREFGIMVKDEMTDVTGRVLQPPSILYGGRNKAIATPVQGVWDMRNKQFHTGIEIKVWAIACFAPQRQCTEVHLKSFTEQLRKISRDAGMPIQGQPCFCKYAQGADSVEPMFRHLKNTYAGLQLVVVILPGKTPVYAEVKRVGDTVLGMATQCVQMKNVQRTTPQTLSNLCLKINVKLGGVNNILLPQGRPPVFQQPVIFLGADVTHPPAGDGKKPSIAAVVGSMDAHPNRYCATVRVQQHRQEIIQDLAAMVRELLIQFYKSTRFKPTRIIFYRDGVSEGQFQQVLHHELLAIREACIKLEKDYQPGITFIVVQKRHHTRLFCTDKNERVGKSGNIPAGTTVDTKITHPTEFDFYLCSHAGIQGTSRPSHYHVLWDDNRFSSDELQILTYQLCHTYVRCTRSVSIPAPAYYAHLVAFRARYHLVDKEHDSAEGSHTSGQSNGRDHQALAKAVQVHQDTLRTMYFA

Kd [1]: 4.6 ± 0.6 µM
Kd [2]: 7.9 ± 1.3 µM
Kd [3]: 17.6 ± 1.7 µM
B1: C-terminal domain of DICER1 (DICER1^CT, residues 1276-1922) (domain or fragment, UniProt Q9UPY3 1276-1922, looked up)
chain: DSEQSPSIGYSSRTLGPNPGLILQALTLSNASDGFNLERLEMLGDSFLKHAITTYLFCTYPDAHEGRLSYMRSKKVSNCNLYRLGKKKGLPSRMVVSIFDPPVNWLPPGYVVNQDKSNTDKWEKDEMTKDCMLANGKLDEDYEEEDEEEESLMWRAPKEEADYEDDFLEYDQEHIRFIDNMLMGSGAFVKKISLSPFSTTDSAYEWKMPKKSSLGSMPFSSDFEDFDYSSWDAMCYLDPSKAVEEDDFVVGFWNPSEENCGVDTGKQSISYDLHTEQCIADKSIADCVEALLGCYLTSCGERAAQLFLCSLGLKVLPVIKRTDREKALCPTRENFNSQQKNLSVSCAAASVASSRSSVLKDSEYGCLKIPPRCMFDHPDADKTLNHLISGFENFEKKINYRFKNKAYLLQAFTHASYHYNTITDCYQRLEFLGDAILDYLITKHLYEDPRQHSPGVLTDLRSALVNNTIFASLAVKYDYHKYFKAVSPELFHVIDDFVQFQLEKNEMQGMDSELRRSEEDEEKEEDIEVPKAMGDIFESLAGAIYMDSGMSLETVWQVYYPMMRPLIEKFSANVPRSPVRELLEMEPETAKFSPAERTYDGKVRVTVEVVGKGKFKGVGRSYRIAKSAAARRALRSLKANQPQVPNS
modifications: labelled with Atto 488 NHS ester in the MST with GRB2; unlabelled in the MST with AGO2
notes: DICER1, residues 1276-1922, with the RNase III domains; also called DICER1 C-terminal region

Kd (His-tagged GRB2 [4]): 4.27 ± 1.17 µM
B2: PRM-containing peptide from the AGO2 PAZ domain (residues 317-333) (peptide)
peptide: KLVLRYPHLPCLQVGQE
notes: Argonaute 2 (AGO2), human, PAZ domain, residues 317-333; also called peptide spanning the proline-rich motif 323PHLP326

Kd (His-tagged GRB2 [5]): 585 ± 61 nM
stoichiometry N (His-tagged GRB2 [5]): 1
B3: MBP-tagged AGO2 PAZ domain (residues 235-348) (domain or fragment)
chain: not shown
notes: Argonaute 2 (AGO2), human, PAZ domain, residues 235-348, in pMAL-c5x; The methods say that RNA was left in the PAZ preparation; also called MBP-PAZ; PAZ WT; source: E. coli BL21(DE3), purified (MBPTrap HP, SEC); not shown: MBP, N-terminal, kept
